Assay results reported in patent US10590440B2, “Process for producing a fermentation product from a lignocellulose-containing material” (CysBio ApS, priority 2014, dated 2020).

Test system: E. coli
Assay: Growth of E. coli with or without SULT1A1 in M9 with wheat straw biomass hydrolysate (Example 7, FIG. 9)
Assay type: cell-based, Escherichia coli
Settings: 1 mM IPTG
Excerpt: Here, we examine pre-treated wheat straw biomass hydrolysate in growth medium for a biotechnological relevant organism, exemplified by E. coli. Specifically, we used strains carrying plasmids expressing SULT1A1 from rat (Rattus norvegicus) and SULT1E1 from chicken (Gallus gallus domesticus) (Example 1) cloned into the expression vector pETDuet-1, and cysDNCQ from E. coli cloned into expression vector pRSFDuet-1 (Example 2) as described previously.
Cells expressing no sulfotransferase or SULT1A1 from rat were grown in M9 media with 1 mM IPTG with or without inhibitors of growth. Biomass hydrolysate was prepared by mixing 100 g biomass hydrolysate with 200 g of water for 2 h at 37° C., followed by centrifugation and filtration through a 0.2 μL-filter.

B1: SULT1A1 Rattus norvegicus: aryl sulfotransferase SULT1A1 from Rattus norvegicus (SEQ ID NO: 1), native gene, heterologously expressed (protein, listed as Rattus norvegicus)
chain: MEFSRPPLVHVKGIPLIKYFAETIGPLQNFTAWPDDLLISTYPKSGTTWMSEILDMIYQGGKLEKCGRAPIYARVPFLEFKCPGVPSGLETLEETPAPRLLKTHLPLSLLPQSLLDQKVKVIYIARNAKDVVVSYYNFYNMAKLHPDPGTWDSFLENFMDGEVSYGSWYQHVKEWWELRHTHPVLYLFYEDIKENPKREIKKILEFLGRSLPEETVDSIVHHTSFKKMKENCMTNYTTIPTEIMDHNVSPFMRKGTTGDWKNTFTVAQNERFDAHYAKTMTDCDFKFRCEL
For B1, the “growth rate versus strain without sulfotransferase” value (M9 with 8% or 12% biomass hydrolysate) was “significantly higher” and the “growth rate versus strain without sulfotransferase” value (M9 without supplements) was “no difference in growth rate”.
